Assay results: paper PMC7596504, “Molecular mechanism of the MORC4 ATPase activation” (Nature Communications, 2020)

Assays:
[1] = biological target: T1, MORC4 CW domain (Homo sapiens, UniProt Q8TE76); assay: 1H,15N HSQC NMR titration of MORC4 CW; assay type: binding
T1 construct: The CW domain (aa 417–475) of MORC4 was cloned into a pGEX 6p-1 vector; GST (N, cleaved yes); made in house; host or cells: E. coli Rosetta2 (DE3) pLysS or BL21 (DE3) RIL
T1 sequence (Q8TE76 417-475): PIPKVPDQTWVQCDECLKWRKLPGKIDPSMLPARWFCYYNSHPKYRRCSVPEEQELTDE
Description: NMR experiments were carried out at 298 K on a Varian INOVA 600 and 900 MHz spectrometers. His-tagged MORC4 ATPase (1–411) was expressed and purified as described above and used without cleavage of the tag. NMR samples contained 0.1 mM uniformly ^15N-labeled WT or mutated CW in 20 mM Tris-HCl (pH 7) buffer supplemented with 100 mM NaCl, 5 mM DTT, and 10% D2O. Binding was characterized by monitoring CSPs in the proteins induced by H3 peptides or the ATPase domain. For the CWKRR mutant, NMR experiments were performed in 20 mM Tris-HCl (pH 6.8) buffer supplemented with 150 mM NaCl, 2 mM DTT, and 10% D2O.

[2] = tested on: NCP147; assay: EMSA with NCP147; assay type: binding; conditions: 5 nM 147 bp fluorescein-labeled NCP, pH 7.5, 4 °C
Description: EMSAs were performed by mixing increasing amounts of MORC4 ATPase with 5 nM 147 bp fluorescein-labeled NCP in 25 mM Tris-HCl pH 7.5, 75 mM NaCl, 25 mM Tris-HCl pH 7.5, 0.005% Tween 20, and 10% glycerol buffer in a 12 μL reaction volume. Each sample was incubated at 4 °C for 5 min and then loaded onto a 5% native polyacrylamide gel. Electrophoresis was performed in 0.3× Tris-borate-EDTA (TBE) at 300 V for 90 min. Fluorescein fluorescence images were acquired with a Typhoon Phosphor Imager.

[3] = tested on: NCP147; assay: Fluorescence polarization binding to NCP147
[4] = tested on: MORC4; assay: ATPase activity assay (EnzChek Phosphate Assay Kit); assay type: biochemical, human; parameters: Rate of ATP hydrolysis: unit not given here; conditions: for Rate of ATP hydrolysis: no DNA, no peptide
Description: To determine whether MORC4 is catalytically active, we produced the ATPase domain of human MORC4 and examined its ability to hydrolyze ATP in enzymatic assays (Fig. 1a–c). Following incubation of the ATPase domain with ATP, 2-amino-6-mercapto-7-methylpurine ribonucleoside and nucleoside phosphorylase, the release of inorganic phosphate generated by the hydrolysis of ATP to ADP was monitored by measuring an increase in absorbance at 360 nm.
The ATPase assays were performed using the EnzChek Phosphate Assay Kit (Invitrogen, item # E6646). The reactions were carried out on 1.0 µM of MORC4 His-ATPase or ATPaseCW (WT and mutants), in the presence and absence of 1 µM 601 DNA or 50 µM of unmodified H3 or H3K4me3 peptide (aa 1–12 of H3) in a buffer containing 50 mM Tris-HCl (pH 7.5), 150 mM NaCl, 1 mM MgCl2, 0.1 mM sodium azide, 200 µM MESG, and 1 U of PNP. In assay with the nucleosome, 0.5 µM of MORC4 ATPaseCW and 0.5 µM NCP167 (Activemotif) were used. The reaction was started by adding 2 mM ATP to the mixture at room temperature, and the release of inorganic phosphate was monitored by measuring the absorbance at 360 nm on a Nanodrop 2000c spectrophotometer (Thermo Scientific). In the presence of inorganic phosphate, produced by the hydrolysis of ATP to ADP, MESG is enzymatically converted to ribose 1-phosphate and […] by PNP, resulting in a shift in the wavelength absorbance from 330 nm for MESG to 360 nm for the product. The rate of ATP self-hydrolysis was measured in parallel. Error was calculated as the S.D. of at least three separate experiments (two in Fig. 4j).

[5] = tested on: NCP207; assay: Fluorescence polarization binding to NCP207
Description: Fluorescence polarization measurements were acquired with a Tecan infinite M1000Pro plate reader by exciting at 470 nm and measuring polarized emission at 519 nm with 5 nm excitation and emission bandwidths. The fluorescence polarization was calculated from the emission polarized parallel and perpendicular to the polarized excitation light. Fluorescence polarization measurements were carried out using increasing concentrations of MORC4 ATPaseCW, ATPase alone, or CW alone with 5 nM 207 bp Fluorescein-labeled NCPs in 15 mM Tris pH 7.5, 75 mM NaCl, 0.00625% Tween 20, and 5 mM dithiothreitol buffer in 30 µL reaction volumes. The samples were loaded into a Corning round bottom black polystyrene plate and incubated at room temperature for 10 min before fluorescence polarization measurements of the samples were taken. The data were then fit to a non-cooperative binding isotherm to determine S1/2 values. Errors represent a S.D. between the S1/2 values based on three runs.
Histone octamers unlabeled or labeled with Cy5 at H2AK119 were prepared as previously described. NCPs were reconstituted by combining octamer with 1.25× excess DNA and performing slow salt dialysis. Free DNA was then separated from fully reconstituted NCPs by sucrose gradient purification. NCPs for fluorescence polarization assays were reconstituted from unlabeled octamer and 207 bp DNA containing the 601 Widom sequence flanked with a 30 bp linker on either side and internally labeled with Fluorescein 27 bp in from the 5′ end. Cy3-Cy5 labeled NCPs for FRET assays were reconstituted with Cy5 labeled octamer plus either 147 bp 601 Widom DNA containing a LexA transcription factor binding site at bases 8–27[34], or 252 bp DNA containing the 601 Widom sequence with a 75 bp linker at the 3′ end, a 30 bp linker at the 5’ end, and a Gal4 transcription factor binding site at bases 8–26 in the 601 Widom sequence. The 147 bp LexA-binding DNA was labeled with Cy3 on the 5′ end, and the 252 bp Gal4-binding DNA was internally labeled with Cy3 34 bp in from the 5′ end.

interaction with CW by chemical shift perturbations ([1]; 15N-labeled WT CW 0.1 mM, pH 7, 100 mM NaCl, 298 K): formation of the large ATPase:CW complex
binding to NCP147 in EMSA [2]: bound to NCP147
decrease in binding to NCP147 compared to NCP207 ([3]; NCP147 vs NCP207 (peer review file)): 5 fold
S1/2 ([3]; fluorescence polarization, pH 7.5, 75 mM NaCl, room temperature, 10 min, mean of n = 3): 2.3 µM
Rate of ATP hydrolysis ([4]; 1.0 µM protein, 2 mM ATP, pH 7.5, room temperature, absorbance 360 nm, Fig. 1b,c, mean): 0.08049
Rate of ATP hydrolysis ([4]; Fig. 1b, replicate 4): 0.02158
Rate of ATP hydrolysis ([4]; Fig. 1b, replicate 5): 0.01439
increase in interaction with NCP207 relative to NCP147 ([5]; NCP207 vs NCP147): ~ 5 fold
S1/2 ([5]; fluorescence polarization, 5 nM NCP207, pH 7.5, 75 mM NaCl, room temperature, 10 min, mean ± S.D. of n = 3): 0.50 ± 0.08 µM
B1: ATPase: ATPase domain (aa 29–411) of human MORC4 (Q8TE76) (protein, UniProt Q8TE76 29-411, looked up, fragment)
chain: GIRLSTMSPRYLQSNSSSHTRPFSAIAELLDNAVDPDVSARTVFIDVEEVKNKSCLTFTDDGCGMTPHKLHRMLSFGFTDKVIKKSQCPIGVFGNGFKSGSMRLGKDALVFTKNGGTLTVGLLSQTYLECVQAQAVIVPIVPFNQQNKKMIITEDSLPSLEAILNYSIFNRENDLLAQFDAIPGKKGTRVLIWNIRRNKNGKSELDFDTDQYDILVSDFDTEEKMTGGVTSELPETEYSLRAFCGILYMKPRMKIFLRQKKVTTQMIAKSLANVEYDTYKPTFTNKQVRITFGFSCKNSNQFGIMMYHNNRLIKSFEKVGCQVKPTRGEGVGVIGVIECNFLKPAYNKQDFEYTKEYRLTINALAQKLNAYWKEKTSQDNFET
competition with H3 peptide for CW ([1]; titration into the CW:H3 complex): disruption of the CW:H3 complex and formation of the complex between CW and the ATPase domain
catalytic (ATPase) activity of the protein [4]: possesses little ATP hydrolyzing activity
